{"source": "the nanobody polyreactivity screen of Harvey et al. (2022)", "data": [{"test": "yeast display, Sf9 membrane polyspecificity reagent, FACS + sequencing; frameworks hold sequencing errors", "procedure,_shortened": "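Sorting gates, low and high (top ~1%), were placed on anti-HA fluorescence to track expression and on streptavidin fluorescence to track reagent binding. A clone's polyreactivity label is taken from the gate it came out of. The reagent was 10% biotinylated, detergent-solubilized Sf9 membrane, applied for 1 hour at 4 °C to galactose-induced yeast display cells.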", "values": [{"sequence": "QVQLVESGVRLVQAGGSLRLSCAASGRTLKYNAMGWYIQAPGKERELVAAISYSGSSTYYADSVRGRFTISRDNAKNTVYLQMNSLKPEDTAVYYFNTARPTAAYDYWGQGTQVTVSS", "polyreactivity (PSR sort gate)": "low polyreactivity"}, {"sequence": "QVQLVDSGGGLVQAGGSLRLSCASSGFTISPYAMGWYRQAPGKERELVAAISSSGGSTYYADSVKGRFTISRDNAKYTVYLQMTSLKPEDTAVYYCATQGTRRPGKFYYWGQCTQVTVSS", "polyreactivity (PSR sort gate)": "high polyreactivity"}, {"sequence": "QVQLVESGGGLVQAGGSLRLTCAASGFIFRYYAMGWYRPATGKEMELVAAISRGGSTNYADSVKGRFTISRDNAKYTVYLQMNSLKPEDTAVYYCASRKGRSKQGYYYWGQGTQVTVSS", "polyreactivity (PSR sort gate)": "high polyreactivity"}, {"sequence": "QVQLVESGGGLVQAGGSLRLSCAASGSIFDINAMGWYRQAPGKEREFVAAISWSGGTTYYADSVKGRFTISRDNAKNPVYLQMNSLKPEDTAVYYCAALSYVKRRQSYGYWGLGTQVTVSS", "polyreactivity (PSR sort gate)": "high polyreactivity"}, {"sequence": "QVQLVESGGGLVHAGGSLRLSCAASGRTFRDNVMGWSRQAPGKERELVAAISRSGGSTYYADSVKGRFTISRDNAKHTVYLQMNSQKPEDTAVYYSNAPYYVRSQYTFDYWGQGTQVTVSS", "polyreactivity (PSR sort gate)": "high polyreactivity"}, {"sequence": "QVQLVESGGGLVQAGGSLRLSCAASGSIFTNAMGWYIQAPGKERELVAAISSSGGSTYYADSVKGRFTISRDNANNTVYLQMNSLKPEDTAVYYCSADHFGGRDYWGQGTQVTVSS", "polyreactivity (PSR sort gate)": "low polyreactivity"}, {"sequence": "QVQIVESGGGLVQAGGSLRLSCAASGFTSQFYAMGWYRQAPGKEMELVAAISSGSSTYYADSVKGRFTSSRDNAKNTVYLQMNSLKPEDTAVYYCATTHKTLRRYDSWGQGTKVTVSS", "polyreactivity (PSR sort gate)": "low polyreactivity"}, {"sequence": "QVQLVESGGGLVQAGGSLRLSCAASGRISAYNAMGWYRQAPGKERELVAGISTRTGSTYYADSVKGRFTISRDNAKNTVYLQMNSLKPEDTAVYYCAAYFWGVYFFGMDYWGQGTQVTVSS", "polyreactivity (PSR sort gate)": "low polyreactivity"}, {"sequence": "QVQLVESGGGLVQAGGSLRLSCAASGRIFVRNAMGWYRQAPGKERELVADITNGGSTNYADSVKGRFTISRDNAKNTVYLQMNSLKPEDTAVYYCAADTLGVYDGDYWGQGTQVTVSS", "polyreactivity (PSR sort gate)": "low polyreactivity"}, {"sequence": "QVQLVESGGGLVQAGDSLRLSCAASGSIFVYYAMGWYRQAPGKERELVASISKTGGRTYYADSVKGRFTISRDNAKNTVFLQMNSLKPEDTAVYYCAARYTIRYKRYDYWGQGSQVTVSS", "polyreactivity (PSR sort gate)": "high polyreactivity"}, {"sequence": "QVQLVESGGGLVQAGGSLRLSCAASGSTFYSYVMGGYRQAPGKERELVAAISKRGTSTYYADSVKGRFTISRDNAKYTVYLQMNSLKPEDNAVYYCAARPIVGVYPDIYDYWGHGTQVTVSS", "polyreactivity (PSR sort gate)": "low polyreactivity"}, {"sequence": "QVQLVDSGGGLVQAGGSLRLSCAASGSTFYGYTMGWYRQAPGKERELVAAITSSGGSTYYADTVKGRFTISRDNAKNTVYLQMNSLNPEDTAVYYCAARGYRHFYYWGQGTQVTVSS", "polyreactivity (PSR sort gate)": "high polyreactivity"}, {"sequence": "QVQLVESGGGLVQAGGSLRLSCAASGFTFSHYPMGWYRQAPGKERELVASISRRCGTTYYADSVKGRFTISRDNAKNTVYLQMNSLKPEDTAVYYCAVDLYIYYREYDYWGQGTQVTVSS", "polyreactivity (PSR sort gate)": "high polyreactivity"}, {"sequence": "QVQLVESGGGLVQAGGSLRLSCAASGSTFGYYAMGWYRQAPGKERELVAAISSGGSTNYADSVKGRFTISRDNAKNTVYLQMNSLKPEDTAVYYCNVGYIFVSFRYDYWGQGTQVTVSS", "polyreactivity (PSR sort gate)": "low polyreactivity"}, {"sequence": "QVQLVESGGGLVQAGGSLRLSCAASGSIFPYNAMGWYRQAPGKERELVAAITQSGGSTYYADSVKGRFTISRDNAKNTVYLQMNSLQPEDTAVYYCAADDYGPEGDYWGQGTQVTVSS", "polyreactivity (PSR sort gate)": "low polyreactivity"}, {"sequence": "QVQLVESGGGLVQAGGSLRLSCAASGRTFGYYAMGWYRQAPGKERELVAGIRSSGGSTYYADSVKGRFTISRDNAKNTVYLQMNSLKAEDTAVYYCAARLRSYNYRYGYDYWGQGTQVTVSS", "polyreactivity (PSR sort gate)": "high polyreactivity"}, {"sequence": "QVQLVESGGGLVQAGGSLRLSCAASGRTFRYYAMGWYRQAPGKERELVAAINRGGSTYYADSVKGRFTISRDNAKNTVYLQMNSLKPEDTAVYYCNFDKYRIVGFHSPYDYWGQGSQVTVSS", "polyreactivity (PSR sort gate)": "high polyreactivity"}, {"sequence": "QVQLVESGGGLVQAGGSLRLSCAASGRILGYYAMGGSRQAPGKERELVAAISSGDSTNYADSVKGRFTISRDNAKNTVYLQMNSLKPEDTAVYYCAAKGWIWNPYNYWGQGTQGTVSS", "polyreactivity (PSR sort gate)": "low polyreactivity"}, {"sequence": "QVQLVESGGGLVQAGGSLRLSCAASGSIFVYYAMGWYRQAPGKERELVARITRGGRTYYADSVKGRFTISRDNAKNTVYLQMNSLKPEDTAVYYCAADYRVQLRKEYDYWGQGTQVTVSS", "polyreactivity (PSR sort gate)": "high polyreactivity"}, {"sequence": "QVQLVESGGGLVQAGGSLRLSCAASGRIFTHNAMGWYRQAPGKERELVAAISYSGVSTYYADSVKGRFTISRDNAKNTVYLQMNSLKPEDTAVYYCARDRWKWHYGYDYWGQGTQVTVSS", "polyreactivity (PSR sort gate)": "low polyreactivity"}, {"sequence": "QVQLVESGGGLVQAGGSLRLSCAASGRIFGRYVMGWYRQAPGKERELVAVISRRSGNTYYADSVKGRFTISRDYAKNTVYLQMNSLKPEDTAVLYCAARYYYSKSDRYDYWGEGTQVTVSS", "polyreactivity (PSR sort gate)": "high polyreactivity"}, {"sequence": "QVQLVESGGGLVQAGGSLRLSCAASGGTFVTYTMAWYRQAPGKEREFVAAISRSGGSTYYADSVKGRFTISRDNAKNTVYLQMNSLKPEDTAVYYCATRGRYYGPGYDYWGQGTQVTVSS", "polyreactivity (PSR sort gate)": "high polyreactivity"}, {"sequence": "QVQLVESGGGLVQAVGSLRLSCAASGFIFAQNARGGSRPAPGKERELVAAIYGSGVRTYYADSVKGRFTISRDNAKNTVYLQMNSLKPEDTAVYYCAKDTYLQIYQYGYWGQGTQVTVSS", "polyreactivity (PSR sort gate)": "high polyreactivity"}, {"sequence": "QVQLVESGGGLVQAGGSLRLSCAASGSTFNKYTMGWYRQAPGKERELVAAISRIGGSTYYADSVKGRFTISRDNAKNTVYLQMNSLKPEDTAVYYCAAPYPIGHDWGQGTQVTVSS", "polyreactivity (PSR sort gate)": "low polyreactivity"}, {"sequence": "QVQLLESGGGLVKAGGSLRVSCAASGLTFNYYAMGWYRHAPGKDRELCAAISRRGGYTYYADSVKGRFTISRDNAKNTVYVQKNSQKPEDTAVYDCAADNYEHNYYGYYYWGQGNQVTVSS", "polyreactivity (PSR sort gate)": "high polyreactivity"}, {"sequence": "HVQLEESGRGLVQAGGSLRLSCAASGRTFTSNAIGWYRQAPGKERELVAVITSGGSTNYADSVKGRFTISRDNAMNTVYLQMNSLKPEDTAVYYCNARSGRGQAYGYWGQGTQVTVSS", "polyreactivity (PSR sort gate)": "high polyreactivity"}, {"sequence": "QVQLVESGGGVVQAGGTLRLSCAASGSLFPYNVMGWYRQAPGKERELVAVITGSTGRTYYADSVKGRFTISRDNAKNTVYLQMNSLKPEDTAVYYCAKRSYWAPYDYWGQGTQVTVSS", "polyreactivity (PSR sort gate)": "high polyreactivity"}, {"sequence": "QVQLVESGGGLVQAGGSLRITCAASASIYYRYAMGWNRQAPGKERELVAAITYSGGSTYYADSVKGRFTISRDNAKNPVYLQMNSLKPEDTAVYYCAKDYPPPISDYSRYYGYGYWGQGTQVTVSS", "polyreactivity (PSR sort gate)": "low polyreactivity"}, {"sequence": "QDQIVESGVGLVQAGGTLRLSCAASGFTFRRYVMGWYRQAPGKERELVAAISQSGGSTYYADSVKGRFTISRDNAKNTVYLQMKSLKPEDTAVYYCAATGAFWYPYDYWGQGTQVTVSS", "polyreactivity (PSR sort gate)": "high polyreactivity"}, {"sequence": "QVQLVESGGGLVQAGGSLRLSCAASGRTFLVYAMGWYRQAPGKERELVADITSGGSTDYADSVKGRFTISRDNAKNTVYLQMNSLKPEDTAVYYCATDLWRWYGWFDYWGQGTQVTVSS", "polyreactivity (PSR sort gate)": "low polyreactivity"}, {"sequence": "QVQLVESGGGLVQAGGSLRLSCAASGSTFRGNAMGWYRQAPGKERELVAAITGRGGRTYYADSVKGRFTISRDNAKNTVYLQMNSLKPEDTAVYYCAAYSRYKPYGITAYDYWGQGTQVNVSS", "polyreactivity (PSR sort gate)": "high polyreactivity"}, {"sequence": "QVQLVESGGGLVQAGGSLRLSCAASGSIFTRYTMGWCRQAPGKERELVAVISDSSGRTYYADTVKGRFTISRDNGKNTDYLQMNSLKPEDPAVYYCAAEYSDIYEYWGQGTQVTVSS", "polyreactivity (PSR sort gate)": "low polyreactivity"}]}]}
